{"source": "paper PMC6755812", "key": {"[1]": {"molecular_target": "bovine pancreas insulin (bovine)", "sequence (P01317 25-54, chain 1 of 2)": "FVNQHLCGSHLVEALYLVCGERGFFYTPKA", "sequence (P01317 85-105, chain 2 of 2)": "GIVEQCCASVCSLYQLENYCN"}, "[2]": {"molecular_target": "Escherichia coli thioredoxin reductase (E. coli) (UniProt P0A9P4)", "sequence (P0A9P4 2-321)": "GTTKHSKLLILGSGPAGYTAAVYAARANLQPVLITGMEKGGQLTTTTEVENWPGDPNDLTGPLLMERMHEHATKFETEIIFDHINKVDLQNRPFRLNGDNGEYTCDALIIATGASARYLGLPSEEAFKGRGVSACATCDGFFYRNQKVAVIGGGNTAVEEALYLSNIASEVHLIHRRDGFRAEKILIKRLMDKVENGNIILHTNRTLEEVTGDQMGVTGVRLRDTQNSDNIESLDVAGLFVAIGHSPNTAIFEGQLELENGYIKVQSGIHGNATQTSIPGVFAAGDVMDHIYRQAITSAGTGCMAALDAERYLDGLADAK"}, "[3]": {"molecular_target": "Escherichia coli peptide methionine sulfoxide reductase A (E. coli) (UniProt P0A744)", "sequence (P0A744 2-212)": "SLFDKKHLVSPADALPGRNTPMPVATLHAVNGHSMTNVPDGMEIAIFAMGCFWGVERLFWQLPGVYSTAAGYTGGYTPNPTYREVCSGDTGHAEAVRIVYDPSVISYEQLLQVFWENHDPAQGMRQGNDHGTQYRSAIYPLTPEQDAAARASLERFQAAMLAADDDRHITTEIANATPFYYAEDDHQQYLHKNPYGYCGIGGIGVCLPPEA"}}}
{"binder": "human thioredoxin (enzyme) MVKQIESKTAFQEALDAAGDKLVVVDFSATWCGPCKMIKPFFHSLSEKYSNVIFLEVDVDDCQDVASECEVKCMPTFQFFKKGQKVGEFSGANKEKLEATINELV", "values": [{"measurement": "Specific insulin reductase activity (0.13 mM insulin, 1 mM DTT, 0.5-2.0 μM Trx, onset of aggregation at OD650, pH 7.0, 25 °C)", "setting": "[1]", "result": 0.155, "unit": "min^−1 μM^−1"}, {"measurement": "Catalytic activity of S-MetO reduction by NADPH (Vi/[Trx]) in the reconstituted NADPH/TrxR/Trx/MsrA chain (4.5 μM TrxR, 4.5 μM MsrA, 0.1-1.0 μM Trx, pH 7.0, 25 °C)", "setting": "[2]", "result": 0.22, "unit": "min^−1"}, {"measurement": "k1: rate constant of Trx–MsrA mixed disulfide formation (stopped-flow fluorescence, 1 μM oxidized MsrA, 5-100 μM reduced Trx, pH 7.0, 25 °C)", "setting": "[3]", "result": 221000, "unit": "M^−1 s^−1"}, {"measurement": "k2: rate constant of mixed disulfide dissociation to reduced MsrA and oxidized Trx (stopped-flow fluorescence, pH 7.0, 25 °C)", "setting": "[3]", "result": 3.63, "unit": "s^−1"}]}
